We go through two molecules from patent US20240392015A1 (OREGON HEALTH AND SCIENCE UNIVERSITY, published 2024).

Test [1] has as its target T1, CCR5 on CD4+ T cells of rhesus macaques (rhesus macaque, UniProt P61813 1-352).
T1 construct: also called surface CCR5; CD195
Briefly: CCR5 receptor occupancy by flow cytometry on blood CD4+ T cells after a single 10 mg/kg s.c. dose in rhesus macaques.

In test [2] the target is T1, CCR5 on CD4+ T cells of rhesus macaques. The experiment in a line: CCR5 receptor occupancy by flow cytometry on blood, rectal and vaginal CD4+ T cells after a single 10 mg/kg s.c. dose in rhesus macaques. Background: In flow cytometry, cells or beads pass a laser one at a time.

B1: leronlimab (human IgG4 Fc) (antibody, V domains shown)
VH: EVQLVESGGGLVKPGGSLRLSCAASGYTFSNYWIGWVRQAPGKGLEWIGDIYPGGNYIRNNEKFKDKTTLSADTSKNTAYLQMNSLKTEDTAVYYCGSSFGSNYVFAWFTYWGQGTLVTVSS
VL: DIVMTQSPLSLPVTPGEPASISCRSSQRLLSSYGHTYLHWYLQKPGQSPQLLIYEVSNRFSGVPDRFSGSGSGTDFTLKISRVEAEDVGVYYCSQSTHVPLTFGQGTKVEIK
notes: also called PRO140; PRO 140
Regarding B1, the binding result in test [1] is “binds”.

B2: macaque IgG4 LS leronlimab (antibody, V domains shown)
VH: EVQLVESGGGLVKPGGSLRLSCAASGYTFSNYWIGWVRQAPGKGLEWIGDIYPGGNYIRNNEKFKDKTTLSADTSKNTAYLQMNSLKTEDTAVYYCGSSFGSNYVFAWFTYWGQGTLVTVSS
VL: DIVMTQSPLSLPVTPGEPASISCRSSQRLLSSYGHTYLHWYLQKPGQSPQLLIYEVSNRFSGVPDRFSGSGSGTDFTLKISRVEAEDVGVYYCSQSTHVPLTFGQGTKVEIKR
notes: also called MacLS; macaque IgG4 LS variant
Regarding B2, the binding result in test [2] is on record as “binds”.
